Values of other authors as cited in PMC11475284.
Several values for one entry are separate records, joined by “and”; a condition that tells them apart may be missing. Equal values may be shown once.

Target: Axin1 DAX (Homo sapiens) (UniProt O15169)
Assay: SEC-MALS

Kd: 900 nM and 240 nM
Substance: Axin1 DAX (from UniProt O15169)
